From patent US20100068186A1 (published 2010) come the findings set out here.

This assay addresses T1, catalytic sub-unit of the Telomerase protein peptide on HLA-A*02:01 (human).
T1 peptide: ILAKFLHWL
As to the kind of experiment: Kd or kinetics.

B1: TCR of SEQ ID NOs 15 and 23 (TCR, V domains shown)
Valpha: GIQVEQSPPDLILQEGANSTLRCNFSDSVNNLQWFHQNPWGQLINLFYIPSGTKQNGRLSATTVATERYSLLYISSSQTTDSGVYFCAVDSATTGMFGYIFGTGTRLKVLA
Vbeta: NAGVTQTPKFQVLKTGQSMTLQCAQDMNHEYMSWYRQDPGMGLRLIHYSVGAGITDQGEVPNGYNVSRSTTEDFPLRLLSAAPSQTSVYFCGIQPQGTEAFFGQGTRLTVV
Consider B1, for which the binding result is on record as “recognises”.

B2: TCR of SEQ ID NOs 21 and 65 (TCR, V domains shown)
Valpha: GIQVEQSPPDLILQEGANSTLRCNFSDSVNNLQWFHQNPWGQLINLFYIPSGTKQNGRLSATTVATERYSLLYISSSQTTDSGVYFCAVDSATSGMFGYIFGTGTRLKVLA
Vbeta: NAGVTQTPKFQVLKTGQSMTLQCAQDMNHEYMSWYRQDPGMGLRLIHYSRWVGDTDQGEVPNGYNVSRSTTEDFPLRLLSAAPSQTSVYFCGVQPQGTEAFFGQGTRLTVV
Consider B2, for which the binding result was “recognises”.

B3: TCR of SEQ ID NOs 15 and 69 (TCR, V domains shown)
Valpha: GIQVEQSPPDLILQEGANSTLRCNFSDSVNNLQWFHQNPWGQLINLFYIPSGTKQNGRLSATTVATERYSLLYISSSQTTDSGVYFCAVDSATTGMFGYIFGTGTRLKVLA
Vbeta: NAGVTQTPKFQVLKTGQSMTLQCAQDMNHEYMSWYRQDPGMGLRLIHYSIWEFETDQGEVPNGYNVSRSTTEDFPLRLLSAAPSQTSVYFCGVQPQGTEAFFGQGTRLTVV
On to B3, for which the binding result is reported as “recognises”.

B4: TCR of SEQ ID NOs 15 and 66 (TCR, V domains shown)
Valpha: GIQVEQSPPDLILQEGANSTLRCNFSDSVNNLQWFHQNPWGQLINLFYIPSGTKQNGRLSATTVATERYSLLYISSSQTTDSGVYFCAVDSATTGMFGYIFGTGTRLKVLA
Vbeta: NAGVTQTPKFQVLKTGQSMTLQCAQDMNHEYMSWYRQDPGMGLRLIHYSRWVGDTDQGEVPNGYNVSRSTTEDFPLRLLSAAPSQTSVYFCGIQPQGTEAFFGQGTRLTVV
Turning to B4, the binding result is on record as “recognises”.

B5: TCR of SEQ ID NOs 15 and 68 (TCR, V domains shown)
Valpha: GIQVEQSPPDLILQEGANSTLRCNFSDSVNNLQWFHQNPWGQLINLFYIPSGTKQNGRLSATTVATERYSLLYISSSQTTDSGVYFCAVDSATTGMFGYIFGTGTRLKVLA
Vbeta: NAGVTQTPKFQVLKTGQSMTLQCAQDMNHEYMSWYRQDPGMGLRLIHYSIWEFETDQGEVPNGYNVSRSTTEDFPLRLLSAAPSQTSVYFCGIQPQGTEAFFGQGTRLTVV
Regarding B5, the binding result is listed as “recognises”.

B6: TCR of SEQ ID NOs 15 and 70 (TCR, V domains shown)
Valpha: GIQVEQSPPDLILQEGANSTLRCNFSDSVNNLQWFHQNPWGQLINLFYIPSGTKQNGRLSATTVATERYSLLYISSSQTTDSGVYFCAVDSATTGMFGYIFGTGTRLKVLA
Vbeta: NAGVTQTPKFQVLKTGQSMTLQCAQDMNHEYMSWYRQDPGMGLRLIHYSICWGCTDQGEVPNGYNVSRSTTEDFPLRLLSAAPSQTSVYFCGVQPQGTEAFFGQGTRLTVV
As to B6, the binding result is recorded as “recognises”.
